Experimental data: PMC3605791 (Nature structural & molecular biology, 2012)
Numbering of substitutions follows the chain as printed. Names and notes keep the numbering of the source.

B1: GSTVAMP7 residues 1–160 (domain or fragment)
chain: MAILFAVVARGTTILAKHAWCGGNFLEVTEQILAKIPSENNKLTYSHGNYLFHYICQDRIVYLCITDDDFERSRAFSFLNEVKKRFQTTYGSRAQTALPYAMNSEFSSVLAAQLKHHSENKSLDKVMETQAQVDELKGIMVRNIDLVAQRGERLELLIDK
B2: VAMP7 CD (1–188) (domain or fragment)
chain: MAILFAVVARGTTILAKHAWCGGNFLEVTEQILAKIPSENNKLTYSHGNYLFHYICQDRIVYLCITDDDFERSRAFSFLNEVKKRFQTTYGSRAQTALPYAMNSEFSSVLAAQLKHHSENKSLDKVMETQAQVDELKGIMVRNIDLVAQRGERLELLIDKTENLVDSSVTFKTTSRNLARAMCMKNIK
B3: VAMP7 R72A (domain or fragment)
chain: B2 chain with R72A
B4: VAMP7 D69A E71F S73D (domain or fragment)
chain: B2 chain with D69A, E71F, S73D

Assays:
[1] = molecular target: VAMP7 longin domain (Mus musculus) (UniProt P70280); settings: cited from earlier work
Varp(658–921)His6 [2] = molecular target: T1, Varp(658–921)His6 (human, UniProt Q96NW4 658-921); test: pull-down
T1 sequence (Q96NW4 658-921): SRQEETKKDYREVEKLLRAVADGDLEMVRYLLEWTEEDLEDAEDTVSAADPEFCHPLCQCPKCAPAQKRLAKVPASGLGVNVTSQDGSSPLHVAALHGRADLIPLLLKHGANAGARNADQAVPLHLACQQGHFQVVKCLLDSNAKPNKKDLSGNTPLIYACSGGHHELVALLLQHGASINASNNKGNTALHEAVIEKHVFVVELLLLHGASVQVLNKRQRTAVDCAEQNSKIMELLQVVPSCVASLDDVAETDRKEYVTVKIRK

Varp(658–921)His6 [3] = molecular target: T1, Varp(658–921)His6; test: ITC

Row | Molecule | Kd (Varp(658–921)His6 [3]) | further results
1 | Varp (construct not stated, KD with Rab38:GTP or Rab32:GTP) (from UniProt Q96NW4 1-1050) (natural protein) |  | Kd (Rab38:GTP or Rab32:GTP): 2 to 5 µM
2 | Hrb (from UniProt P52594) |  | Kd [1]: 10 µM
3 | B1 |  | binding result (Varp(658–921)His6 [2]): binds
4 | B2 | 2.3 µM | 
5 | B3 | > 300 µM | 
6 | B4 | > 300 µM | 
